# Patent CN113563475A (INST MICROBIOLOGY CAS, dated 2021)
# Legend:
# [1] = molecular target: 新冠病毒S抗原 (on VSV-SARS-CoV-2 pseudovirus, wild type) (新型冠状病毒 (2019-nCoV / SARS-CoV-2), UniProt P0DTC2 14-1273); test: cell-based or functional assay
# [2] = molecular target: 带有组氨酸标签的S蛋白RBD (新型冠状病毒 (2019-nCoV / SARS-CoV-2), UniProt P0DTC2 319-541)
Binder,"中和滴度(半数中和浓度，NC50), 2019-nCoV假病毒, Hela-hACE2, luciferase [1] [µg/mL]",Kd [2] [nM]
双特异性抗体BS-mAb-1 (bispecific antibody) heavy: not shown light: DIQMTQSPLSLPVTPGEPASISCRSSQSLLDSDDGNTYLDWYLQKPGQSPQLLIYTLSYRASGVPDRFSGSGSGTDFTLKISRVEAEDVGVYYCMQRIEFPLTFGGGTKVEIKGGGGSGGGGSDIVMTQSPSFLSASVGDRVTITCRASQGISSYLAWYQQKPGKAPKLLIYAASTLQSGVPSRFSGSGSGTEFTLTISSLQPEDFATYYCQQLNSYPPYTFGQGTKLEIKRTVAAPSVFIFPPSDEQLKSGTASVVCLLNNFYPREAKVQWKVDNALQSGNSQESVTEQDSKDSTYSLSSTLTLSKADYEKHKVYACEVTHQGLSSPVTKSFNRGEC,0.119,–
"单抗B38 (antibody, V domains shown) VH: EVQLVESGGGLVQPGGSLRLSCAASGFIVSSNYMSWVRQAPGKGLEWVSVIYSGGSTYYADSVKGRFTISRHNSKNTLYLQMNSLRAEDTAVYYCAREAYGMDVWGQGTTVTVSS VL: DIVMTQSPSFLSASVGDRVTITCRASQGISSYLAWYQQKPGKAPKLLIYAASTLQSGVPSRFSGSGSGTEFTLTISSLQPEDFATYYCQQLNSYPPYTFGQGTKLEIK",0.681,22.5
双特异性抗体BS-mAb-2 (bispecific antibody) heavy: not shown light: DIVMTQSPSFLSASVGDRVTITCRASQGISSYLAWYQQKPGKAPKLLIYAASTLQSGVPSRFSGSGSGTEFTLTISSLQPEDFATYYCQQLNSYPPYTFGQGTKLEIKRTVAAPSVFIFPPSDEQLKSGTASVVCLLNNFYPREAKVQWKVDNALQSGNSQESVTEQDSKDSTYSLSSTLTLSKADYEKHKVYACEVTHQGLSSPVTKSFNRGECS,0.048,–
